According to paper PMC7360965 (The EMBO Journal, 2020):
Substitutions are numbered along the chain they refer to. Names may count otherwise. Ends that are not written are not given here.

B1: Human UTRN-ABD (amino acids 1-261) H29A (domain or fragment)
chain: MAKYGEHEASPDNGQNEFSDIIKSRSDEANDVQKKTFTKWINARFSKSGKPPINDMFTDLKDGRKLLDLLEGLTGTSLPKERGSTRVHALNNVNRVLQVLHQNNVELVNIGGTDIVDGNHKLTLGLLWSIILHWQVKDVMKDVMSDLQQTNSEKILLSWVRQTTRPYSQVNVLNFTTSWTDGLAFNAVLHRHKPDLFSWDKVVKMSPIERLEHAFSKAQTYLGIEKLLDPEDVAVQLPDKKSIIMYLTSLFEVLPQQVTID
notes: source: E. coli Rosetta DE3, purified (His-Trap, Superdex-200)
B2: Human UTRN-ABD (amino acids 1-261) I22D (domain or fragment)
chain: B1 chain with I22D, A29H
notes: as for B1
B3: Human UTRN-ABD (amino acids 1-261) N109A (domain or fragment)
chain: B1 chain with A29H, N109A
notes: as for B1
B4: Human UTRN-ABD (amino acids 1-261) V87D (domain or fragment)
chain: B1 chain with A29H, V87D
notes: also called UTRN-V87D; source: E. coli Rosetta DE3, purified (His-Trap, Superdex-200)
B5: FAM-lifeAct-14 peptide (carboxy-terminal truncated version of lifeAct) (peptide)
peptide: MGVADLIKKFESIS
modifications: not fully specified (N-terminus); also: FAM label, position not given here
notes: source: synthetic peptide (custom synthesized, LifeTein, USA)
B6: FAM-lifeAct-17 peptide (full-length lifeAct) (peptide)
peptide: MGVADLIKKFESISKEE
modifications: also: FAM label, position not given here
notes: also called lifeAct peptide; source: synthetic peptide (custom synthesized, LifeTein, USA)

target: F-actin (filamentous actin), actin purified from chicken breast (Gallus gallus) (chicken (Gallus gallus), UniProt P68139 1-377); assay: co-sedimentation; details: both partners purified

Binder	Kd [nM]
B1	2800
B2	38000
B3	55000
B4	> 100000
B5	1200
B6	2200
